Results as given in patent publication US20040038400A1 (TRUSTEES OF DARTMOUTH COLLEGE, published 2004).

Target: T1, WC-1 (Neurospora, UniProt Q01371 1-1167)
T1 construct: Tested either as native protein in Neurospora nuclear extracts or as 'full-length WC-1' made in reticulocyte lysate; also called White Collar-1; WC-1 protein
Test: EMSA supershift with nuclear extracts; complexes absent with extracts from wc-1 ER45 or wc-2 KO strains
Source text: The presence of WC-1 and WC-2 in the LRE-bound complexes was confirmed by the absence of complexes in binding reactions performed using nuclear protein extracts from wc-1^ER45 (loss-of-function) or wc-2^KO strains (Collett, et al. (2002) Genetics 160:149). […] Because WC-1 and WC-2 are known to complex with FRQ (Denault, et al. (2001) EMBO J. 20:109; Cheng, et al. (2001) EMBO J. 20:101; Merrow, et al. (2001) EMBO J. 20:307), the presence of FRQ in the complexes bound to the LREs was also determined using FRQ antiserum and extracts from an frq^KO strain. FRQ was not in the dark- or light-induced complexes bound to the LREs, nor was FRQ necessary for the formation of the complexes.
Binding reactions using nuclear protein extracts contained 1× binding buffer, […] KCl, 0.1 μg poly(dI-dC), 1 μl probe, 0.5 μl of normal rabbit sera (Pocono Rabbit Farm, Canadensis, Pa.), and 3 μg of nuclear protein extract, which was added last to the binding reactions, in a total volume of 20 μl. In reactions that contained antisera, 1 μl anti-WC-1, 1 μl anti-WC-2, or 0.5 μl anti-FRQ was used. Binding reactions using in vitro translated proteins contained 1× binding buffer, 1 μg poly(dI-dC), 1 μl probe, and 6 μl of the in vitro translation reaction in a total volume of 20 μl. […]

T1 sequence (Q01371 whole entry): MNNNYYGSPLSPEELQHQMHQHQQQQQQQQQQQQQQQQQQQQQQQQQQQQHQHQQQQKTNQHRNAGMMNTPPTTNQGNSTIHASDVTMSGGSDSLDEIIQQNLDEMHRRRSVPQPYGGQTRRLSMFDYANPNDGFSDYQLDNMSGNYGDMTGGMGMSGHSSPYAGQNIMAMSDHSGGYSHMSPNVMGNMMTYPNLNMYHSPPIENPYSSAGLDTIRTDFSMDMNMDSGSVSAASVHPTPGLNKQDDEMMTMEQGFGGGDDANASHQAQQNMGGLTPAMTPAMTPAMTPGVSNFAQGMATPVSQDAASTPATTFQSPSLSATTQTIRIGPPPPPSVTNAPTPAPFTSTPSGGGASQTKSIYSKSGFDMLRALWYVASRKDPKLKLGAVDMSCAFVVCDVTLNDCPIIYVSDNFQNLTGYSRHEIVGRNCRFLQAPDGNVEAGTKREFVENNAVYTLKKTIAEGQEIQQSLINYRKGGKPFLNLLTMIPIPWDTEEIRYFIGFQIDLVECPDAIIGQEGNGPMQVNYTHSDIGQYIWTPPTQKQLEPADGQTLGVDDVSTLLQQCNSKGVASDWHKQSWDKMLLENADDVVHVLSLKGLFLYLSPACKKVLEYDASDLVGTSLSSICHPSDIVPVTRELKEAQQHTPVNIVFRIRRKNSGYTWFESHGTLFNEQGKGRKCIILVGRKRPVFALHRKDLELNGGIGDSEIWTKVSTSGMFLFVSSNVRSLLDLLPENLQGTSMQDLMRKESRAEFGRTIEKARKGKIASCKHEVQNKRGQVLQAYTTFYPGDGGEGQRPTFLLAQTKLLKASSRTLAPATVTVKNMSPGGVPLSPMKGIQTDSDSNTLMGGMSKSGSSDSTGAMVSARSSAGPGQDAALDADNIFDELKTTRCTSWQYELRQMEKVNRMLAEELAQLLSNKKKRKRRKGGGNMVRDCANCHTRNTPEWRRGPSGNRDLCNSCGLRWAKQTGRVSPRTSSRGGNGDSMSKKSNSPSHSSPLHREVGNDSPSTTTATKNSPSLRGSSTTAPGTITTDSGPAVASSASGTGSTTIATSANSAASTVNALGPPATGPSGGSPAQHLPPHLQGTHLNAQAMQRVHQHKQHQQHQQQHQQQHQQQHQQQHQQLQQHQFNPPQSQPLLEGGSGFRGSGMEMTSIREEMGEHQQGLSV

B1: WC-2 (other, Neurospora, UniProt P78714 1-530, looked up)
chain: MSHGQPPPGSSMYGFGAMGMGSGMGSGMGSGMGTGMGTGMGTGMSASQMTSDPQDMMSLLDTSVFPGFDGMSMSLDVGDSMSNPFTPVSVPPPLPAGNAGPSHVGVCGGHGAPDQLFSPDDLIATSMSSAGPMIATPTTTTSGPSGGPSSGGGSTLTEFTKRRNWPAKVVEELQDWEHILDANGRIKHVSPSVEPLTGYKPPEIIDLFLRDLIHPDDVGVFTAELNEAIATGSQLRLFYRFRKKDGNWTIFETVGHAHIAAAKFAPNPQNQSPFCQAVFMMARPYPTKNAGLLDSFLEHKIENERLKRRIAELRREEQEEQEESHRTWRMSQEGRSDVTPSDDTATQMGMTPFYIPMNAQADVMMPPPSQPASSLNIALTRENLEGIAGSRPDSIREKMLRYEGNHADTIEMLTGLKYQEGERSHGITTGNASPTLIKGDAGIAIPLDRDPRTGEKKKKIKVAEEYVCTDCGTLDSPEWRKGPSGPKTLCNACGLRWAKKEKKKNANNNNNGGGIGGHNDIHTPMGDHMG
notes: Transcription factor; Tested either as native protein in Neurospora nuclear extracts or as 'full length WC-2' made in reticulocyte lysate; also called White Collar-2; WC-2 protein
binding result: binds
